Test results as given in article PMC2196413 (The Journal of Cell Biology, 2001).

T1: GST fusion protein with the cytoplasmic domain of JAM (human, UniProt Q9Y624 260-299)
T1 chain (looked up): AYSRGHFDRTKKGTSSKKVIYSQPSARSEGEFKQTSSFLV

B1: MBP fusion protein with NH2-terminal half of ZO-1 (domain or fragment)
chain: MSARAAAAKSTAMEETAIWEQHTVTLHRAPGFGFGIAISGGRDNPHFQSGETSIVISDVLKGGPAEGQLQENDRVAMVNGVSMDNVEHAFAVQQLRKSGKNAKITIRRKKKVQIPVSHPDPEPVSDNEDDSYDEEVHDPRAGRGALANRRSEKSWARDRSASRERSLSPRSDRRSVASSQPAKPTKVTLVKSRKNEEYGLRLASHIFVKEISQDSLAARDGNIQEGDVVLKINGTVTENMSLTDAKTLIERSKGKLKMVVQRDERATLLNVPDLSDSIHSANASERDDISEIQSLASDHSGRSHDRPPRRSQSRSPDQRSEPSDHSTQSPQQPSNGSLRSREEERMSKPGAISTPVKHVDDHPPKAVEEVTVEKNEKQTPTLPEPKPVYAQVGQPDVDLPVSPSDGALPNSAHEDGILRPSMKLVKFRKGDSVGLRLAGGNDVGIFVAGVLEDSPAAKEGLEEGDQILRVNNVDFTNIIREEAVLFLLDLPKGEEVTILAQKKKDVYRRIVESDVGDSFYIRTHFEYEKESPYGLSFNKGEVFRVVDTLYNGKLGSWLAIRIGKNHKEVERGIIPNKNRAEQLASVQYTLPKTAGGDRADFWRFRGLRSSKRNLRKSREDLSAQPVQTKFPAYERVVLREAGFLRPVTIFGPIADVAREKLAREEPDIYQIAKSEPRDAGTDHRSSGIIRLHTIKQIIDQDKHALLDVTPNAVDRLNYAQWYPIVVFLNPDSKQGVKTMRMRLCPESRKSARKLYERSHKLRKNNHHLFTTTINLNSMNDGWYGALKEAIQQQQNQLVWVSEGKADGATSDDLDLHDDRLSYLSAPGSEYSMYSTDSRHTSDYEDTDTEGGAYTDQELDETL
B2: MBP-PDZ1/2/3–PAR-3 (domain or fragment)
chain: MVKLVQVPNDGGPLGIHVVPFSARGGRTLGLLVKRLEKGGKAEQENLFHENDCIVRINDGDLRNRRFEQAQHMFRQAMRARVIWFHVVPAANKEQYEQLSQREMNNYSPGRFSPDSHCVANRSVANNAPQALPRAPRLSQPPEQLDAHPRLPHSAHASTKPPTAPALAPPNVLSTSVGSVYNTKRVGKRLNIQLKKGTEGLGFSITSRDVTIGGSAPIYVKNILPRGAAIQDGRLKAGDRLIEVNGVDLAGKSQEEVVSLLRSTKMEGTVSLLVFRQEEAFHPREMNAEPSQMQSPKETKAEDEDIVLTPDGTREFLTFEVPLNDSGSAGLGVSVKGNRSKENHADLGIFVKSIINGGAASKDGRLRVNDQLIAVNGESLLGKANQEAMETLRRSMSTEGNKRGMIQ

Target: T1, GST fusion protein with the cytoplasmic …
Test: pull-down

Row | Kd [µM] | Binder
1 | 0.11 | B1
2 | 0.075 | B2
